Read-outs that look alike come from different tables or passages of the source.
Assays:
NHR-23;NHR-85 [1] = biological target: T1, NHR-23;NHR-85 (Caenorhabditis elegans;Caenorhabditis …, UniProt P41828;Q9XUK7 1-588;1-514, |); assay: EMSA
T1 sequence 1: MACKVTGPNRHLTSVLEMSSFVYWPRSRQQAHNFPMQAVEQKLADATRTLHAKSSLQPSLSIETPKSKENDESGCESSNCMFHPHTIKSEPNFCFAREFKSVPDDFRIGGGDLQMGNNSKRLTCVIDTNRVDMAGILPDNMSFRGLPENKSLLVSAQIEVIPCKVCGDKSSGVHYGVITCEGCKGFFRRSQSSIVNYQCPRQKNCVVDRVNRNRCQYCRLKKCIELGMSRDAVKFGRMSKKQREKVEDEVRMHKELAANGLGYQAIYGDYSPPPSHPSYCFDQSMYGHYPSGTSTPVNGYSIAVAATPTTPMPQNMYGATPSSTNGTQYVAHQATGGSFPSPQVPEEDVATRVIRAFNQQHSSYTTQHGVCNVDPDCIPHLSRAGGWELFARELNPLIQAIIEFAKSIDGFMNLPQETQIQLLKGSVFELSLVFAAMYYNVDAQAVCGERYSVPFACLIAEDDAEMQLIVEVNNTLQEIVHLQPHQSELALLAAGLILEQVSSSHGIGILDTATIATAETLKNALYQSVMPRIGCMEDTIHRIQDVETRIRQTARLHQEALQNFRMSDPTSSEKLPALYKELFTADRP
T1 sequence 2: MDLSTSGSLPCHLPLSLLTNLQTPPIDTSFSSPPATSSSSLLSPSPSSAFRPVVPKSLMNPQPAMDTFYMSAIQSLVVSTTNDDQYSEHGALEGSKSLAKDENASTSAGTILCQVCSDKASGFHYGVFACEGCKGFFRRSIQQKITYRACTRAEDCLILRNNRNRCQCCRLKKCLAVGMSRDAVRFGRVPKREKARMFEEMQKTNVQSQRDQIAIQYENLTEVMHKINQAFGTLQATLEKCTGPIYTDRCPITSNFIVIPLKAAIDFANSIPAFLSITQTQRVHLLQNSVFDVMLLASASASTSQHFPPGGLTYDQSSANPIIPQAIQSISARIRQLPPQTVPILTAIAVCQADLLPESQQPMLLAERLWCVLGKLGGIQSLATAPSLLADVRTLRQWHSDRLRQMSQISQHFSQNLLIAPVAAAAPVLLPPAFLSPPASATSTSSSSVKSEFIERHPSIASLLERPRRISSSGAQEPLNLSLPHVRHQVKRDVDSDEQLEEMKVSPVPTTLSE

NHR-23;NHR-85 [2] = biological target: T1, NHR-23;NHR-85; assay: EMSA; remark: listed apart in the source
[3] = biological target: T2, NHR-23 (recombinant, Strep-SUMO tag cleaved) (C. elegans, UniProt P41828 1-588); assay: MST
T2 sequence (looked up): T1 sequence 1

NHR-23;NHR-85 [4] = biological target: T1, NHR-23;NHR-85; assay: EMSA; remark: listed apart in the source

B1: Mut_DR2 (dsDNA)
DNA 1: ACAAATTGAGGTCAGTCCCTGTCTA
DNA 2: TAGACAGGGACTGACCTCAATTTGT
B1: no binding (NHR-23;NHR-85 [1]).

B2: Proximal (25 bp) (dsDNA)
DNA 1: CGAAGCGACCGAATGACCCAGTCTC
DNA 2: GAGACTGGGTCATTCGGTCGCTTCG
B2: binds (NHR-23;NHR-85 [2]).

B3: Mut_DR1 (dsDNA)
DNA 1: ACAAATTGACCTGTGTCGGTCAGTA
DNA 2: ACTGACCGACACAGGTCAATTTGT
B3: no binding (NHR-23;NHR-85 [1]).

B4: Strep2-NHR-85 (natural protein, C. elegans, UniProt Q9XUK7 1-514, looked up)
chain: T1 sequence 2
modifications: AlexaFluor647 NHS Ester label (in the microscale thermophoresis assay only)
In the case of B4, the Kd [3] is reported as 5.8 nM.

B5: wtLIN-4_23_85 (PCE direct repeat, 25 bp) (dsDNA)
DNA 1: ACAAATTGAGGTCAGTCGGTCAGTA
DNA 2: TACTGACCGACTGACCTCAATTTGT
B5: binds (NHR-23;NHR-85 [4]).
